The record followed here is IntAct's records for PubMed 14594812.

The chains are these.
B1: Phospholipase D alpha 1 (Arabidopsis thaliana (Mouse-ear cress)), Q38882 (parent)
chain: MAQHLLHGTLHATIYEVDALHGGGVRQGFLGKILANVEETIGVGKGETQLYATIDLQKARVGRTRKIKNEPKNPKWYESFHIYCAHLASDIIFTVKDDNPIGATLIGRAYIPVDQVINGEEVDQWVEILDNDRNPIQGGSKIHVKLQYFHVEEDRNWNMGIKSAKFPGVPYTFFSQRQGCKVSLYQDAHIPDNFVPRIPLAGGKNYEPQRCWEDIFDAISNAKHLIYITGWSVYAEIALVRDSRRPKPGGDVTIGELLKKKASEGVRVLLLVWDDRTSVDVLKKDGLMATHDEETENFFRGSDVHCILCPRNPDDGGSIVQSLQISTMFTHHQKIVVVDSEMPSRGGSEMRRIVSFVGGIDLCDGRYDTPFHSLFRTLDTVHHDDFHQPNFTGAAITKGGPREPWHDIHSRLEGPIAWDVMYNFEQRWSKQGGKDILVKLRDLSDIIITPSPVMFQEDHDVWNVQLFRSIDGGAAAGFPESPEAAAEAGLVSGKDNIIDRSIQDAYIHAIRRAKDFIYVENQYFLGSSFAWAADGITPEDINALHLIPKELSLKIVSKIEKGEKFRVYVVVPMWPEGLPESGSVQAILDWQRRTMEMMYKDVIQALRAQGLEEDPRNYLTFFCLGNREVKKDGEYEPAEKPDPDTDYMRAQEARRFMIYVHTKMMIVDDEYIIIGSANINQRSMDGARDSEIAMGGYQPHHLSHRQPARGQIHGFRMSLWYEHLGMLDETFLDPSSLECIEKVNRISDKYWDFYSSESLEHDLPGHLLRYPIGVASEGDITELPGFEFFPDTKARILGTKSDYLPPILTT
partner: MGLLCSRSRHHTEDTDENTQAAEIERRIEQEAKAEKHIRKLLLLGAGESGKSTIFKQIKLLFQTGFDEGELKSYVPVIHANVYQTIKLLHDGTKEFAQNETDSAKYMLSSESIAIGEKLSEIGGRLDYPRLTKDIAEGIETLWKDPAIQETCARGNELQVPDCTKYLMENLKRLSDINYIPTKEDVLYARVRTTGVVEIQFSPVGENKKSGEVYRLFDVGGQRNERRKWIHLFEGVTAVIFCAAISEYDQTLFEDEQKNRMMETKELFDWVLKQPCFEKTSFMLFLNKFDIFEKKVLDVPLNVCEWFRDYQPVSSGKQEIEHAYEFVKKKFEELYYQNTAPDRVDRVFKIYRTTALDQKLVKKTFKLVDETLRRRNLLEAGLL

In one test the parent is B1. The following applies: with gpa1_arath GPA1, P18064.
On to F565A, for which the “effect of a mutation on the interaction” value is on record as “decreasing interaction”. Turning to K564A, the “effect of a mutation on the interaction” value is reported as “disrupting interaction”. On the same count and under the same terms, the same measure for E563A: “decreasing interaction”.

In the next test the parent is B1. The following applies: with gpa1_arath GPA1, P18064. This is another data set of the same source.
Take K564A: the “effect of a mutation on the interaction” value is given as “decreasing interaction”.
